From US20140120095A1 (Boehringer Ingelheim, published 2014)
Like-named read-outs stand apart in the source and are kept apart here.

Legend:
[1] = biological target: T1, recombinant mouse DLL4 (mouse, UniProt Q9JI71 27-532); assay: binding ELISA on coated recombinant mouse DLL4, OD 405 nm
T1 construct: extracellular domain; also called rmDLL4; mDLL4
Experimental: (§1) In order to determine cross-reactivity to mouse DII4 a binding ELISA is performed. […] Wells are blocked with a casein solution (1% in PBS). VHHs are applied as dilution series and binding is detected using a mouse anti-myc (Roche) and an anti-mouse-AP conjugate (Sigma, St Louis, Mo., USA) (FIG. 7 A-H). As reference, binding to human DII4 is measured.

[2] = biological target: T2, human DLL1 (human, UniProt O00548 18-545, limits assumed); assay: binding ELISA on coated recombinant human DLL1, OD 405 nm
T2 construct: also called hDLL1
T2 sequence (looked up): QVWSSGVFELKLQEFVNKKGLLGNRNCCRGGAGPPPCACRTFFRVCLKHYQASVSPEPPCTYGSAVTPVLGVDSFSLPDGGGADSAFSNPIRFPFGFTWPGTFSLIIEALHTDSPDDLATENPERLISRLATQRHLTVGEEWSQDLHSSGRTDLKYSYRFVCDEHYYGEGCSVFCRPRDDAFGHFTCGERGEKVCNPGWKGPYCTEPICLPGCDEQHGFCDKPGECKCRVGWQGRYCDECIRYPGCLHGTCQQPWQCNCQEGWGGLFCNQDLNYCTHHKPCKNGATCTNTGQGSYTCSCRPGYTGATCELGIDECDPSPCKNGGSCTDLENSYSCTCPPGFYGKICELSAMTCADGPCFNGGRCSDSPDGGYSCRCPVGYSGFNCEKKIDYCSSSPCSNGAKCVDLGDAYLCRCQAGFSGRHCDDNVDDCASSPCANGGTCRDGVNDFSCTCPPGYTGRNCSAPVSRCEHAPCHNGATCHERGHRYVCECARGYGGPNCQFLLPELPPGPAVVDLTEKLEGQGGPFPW
Experimental: Absence of binding to homologous ligands human DLL1 and human Jagged-1 is assessed via solid phase binding assay (ELISA). In brief, human DLL1 (Alexis, San Diego, Calif., USA) and human Jagged-1 (Alexis, San Diego, Calif., USA) are coated overnight at 4° C. at 1 μg/mL in a 96-well MaxiSorp plate (Nunc, Wiesbaden, Germany). Wells are blocked with a casein solution (1% in PBS). VHHs are applied as dilution series and binding is detected using a mouse anti-myc (Roche) and an anti-mouse-AP conjugate (Sigma, St. Louis, Mo., USA).

[3] = biological target: T3, recombinant human DLL4 (human, UniProt Q9NR61 25-522); assay: competition AlphaScreen, biot-hDLL4/hNotch1-Fc; partial inhibitor
T3 construct: also called rhDLL4; hDLL4

[4] = biological target: T4, human Jagged-1 (human, UniProt P78504 34-1067, limits assumed); assay: binding ELISA on coated recombinant human Jagged-1, OD 405 nm
T4 construct: also called hJagged-1; hJAG1
Outline: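 Plates coated overnight at 4° C with 1 μg/mL ligand, blocked with 1% casein in PBS. VHH dilution series applied; bound VHH detected via mouse anti-myc then anti-mouse-AP conjugate.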

[5] = biological target: T3, recombinant human DLL4; assay: hDLL4 ELISA screen, periplasmic extract
[6] = biological target: T3, recombinant human DLL4; assay: binding ELISA, coated rhDLL4
Experimental: as §1

[7] = biological target: T5, recombinant human VEGF165 (human, UniProt P15692-4 27-191, biotinylated in the competition assays); assay: AlphaScreen, hVEGF165/hVEGFR1-Fc competition
T5 construct: Bought protein; also called hVEGF165; rhVEGF165
Experimental: (§2) Finally, streptavidin donor beads (20 μg/ml) are added and after 1 hour of incubation in the dark, fluorescence is measured on the Envision microplate reader.
Target sequence in this assay (P15692 other isoform, or with tags, fused parts or gaps): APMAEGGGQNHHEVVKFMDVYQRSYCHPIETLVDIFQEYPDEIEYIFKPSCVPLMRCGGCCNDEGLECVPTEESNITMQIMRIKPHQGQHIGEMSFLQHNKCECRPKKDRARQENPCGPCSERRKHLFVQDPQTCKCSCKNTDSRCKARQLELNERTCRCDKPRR

[8] = biological target: T5, recombinant human VEGF165; assay: AlphaScreen, hVEGF165/hVEGFR2-Fc competition
Experimental: as §2
Target sequence in this assay (P15692 other isoform, or with tags, fused parts or gaps): as above

[9] = biological target: T5, recombinant human VEGF165; assay: ELISA, hVEGF165/hVEGFR1-Fc competition; design: % inhibition: concentration or dose not given beside the values
Target sequence in this assay (P15692 other isoform, or with tags, fused parts or gaps): as above

[10] = biological target: T6, recombinant mouse VEGF164 (mouse, UniProt Q00731-2 27-190, biotinylated as the labelled ligand of the mVEGF164/mVEGFR2 AlphaScreen); assay: binding ELISA, coated rmVEGF164
T6 construct: also called mVEGF164; rmVEGF164
T6 sequence (looked up): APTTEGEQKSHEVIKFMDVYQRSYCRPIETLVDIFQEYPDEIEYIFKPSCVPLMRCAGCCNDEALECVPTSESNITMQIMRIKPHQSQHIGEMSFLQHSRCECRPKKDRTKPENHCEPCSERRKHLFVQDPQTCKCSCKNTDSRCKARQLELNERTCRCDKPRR
Experimental: Cross-reactivity to mouse VEGF164 is determined using a binding ELISA. […] Wells are blocked with a casein solution (1% in PBS). […] A mouse VEGF164 reactive mAb is included as positive control.

[11] = biological target: T5, recombinant human VEGF165; assay: SPR Biacore, immobilised hVEGF165, two state reaction model
Experimental: Samples are injected for 2 min and allowed to dissociate up to 20 min at a flow rate of 45 μl/min. In between sample injections, the chip surface is regenerated with 100 mM HCl. HBS-EP+(Hepes buffer pH7.4+EDTA) is used as running buffer. Binding curves are fitted using a Two State Reaction model by Biacore T100 Evaluation Software v2.0.1.
^{(a)}KD = kd1/kₐ₁ * (kd2/(kd2 + kₐ₂)) ^{(b)}Curves are fitted using a Two State Reaction model by Biacore T100 Evaluation Software v2.0.1
Target sequence in this assay (P15692 other isoform, or with tags, fused parts or gaps): as the sequence (P15692 other isoform, or with tags, fused parts or gaps) above

[12] = biological target: T5, recombinant human VEGF165; assay: AlphaScreen, hVEGF165/hVEGFR2-Fc competition; design: % inhibition: concentration or dose not given beside the values
Experimental: as §2

[13] = biological target: T7, VEGF (used to stimulate HUVEC cells) (UniProt P15692-4 27-191, limits assumed); assay: cell-based or functional assay
Target sequence in this assay (P15692 other isoform, or with tags, fused parts or gaps limits assumed): as the sequence (P15692 other isoform, or with tags, fused parts or gaps) above

[14] = biological target: T5, recombinant human VEGF165; assay: binding ELISA, coated rhVEGF165
Target sequence in this assay (P15692 other isoform, or with tags, fused parts or gaps): as the sequence (P15692 other isoform, or with tags, fused parts or gaps) above

[15] = biological target: T5, recombinant human VEGF165; assay: ELISA, hVEGF165/hVEGFR2-Fc competition; design: % inhibition: concentration or dose not given beside the values
[16] = biological target: T7, VEGF (used to stimulate HUVEC cells); assay: cell-based or functional assay; remark: listed apart in the source
Target sequence in this assay (P15692 other isoform, or with tags, fused parts or gaps limits assumed): as the sequence (P15692 other isoform, or with tags, fused parts or gaps) above

[17] = biological target: T5, recombinant human VEGF165; assay: AlphaScreen, hVEGF165/hVEGFR1-Fc competition; design: % inhibition: concentration or dose not given beside the values
Experimental: as §2
Target sequence in this assay (P15692 other isoform, or with tags, fused parts or gaps): as the sequence (P15692 other isoform, or with tags, fused parts or gaps) above

[18] = biological target: T5, recombinant human VEGF165; assay: AlphaScreen, hVEGF165/hVEGFR2-Fc competition; remark: listed apart in the source
[19] = biological target: T5, recombinant human VEGF165; assay: SPR Biacore, VEGF165
[20] = biological target: T7, VEGF (used to stimulate HUVEC cells); assay: cell-based or functional assay; remark: listed apart in the source
[21] = biological target: T5, recombinant human VEGF165; assay: AlphaScreen, hVEGF165/hVEGFR1-Fc competition, -HSA
[22] = biological target: T5, recombinant human VEGF165; assay: AlphaScreen, hVEGF165/hVEGFR2-Fc competition, +5 uM HSA
[23] = biological target: T5, recombinant human VEGF165; assay: AlphaScreen, hVEGF165/hVEGFR2-Fc competition, -HSA
[24] = biological target: T8, human DLL4, full length, overexpressed on cells (human, UniProt Q9NR61 27-685); assay: FMAT, hNotch1-Fc on CHO-hDLL4, -HSA
T8 construct: CHO cells in FMAT, HEK293 cells in the reporter assay; also called hDLL4; CHO-hDLL4

[25] = biological target: T5, recombinant human VEGF165; assay: AlphaScreen, hVEGF165/hVEGFR1-Fc competition, -HSA; remark: listed apart in the source
[26] = biological target: T5, recombinant human VEGF165; assay: AlphaScreen, hVEGF165/hVEGFR2-Fc competition, -HSA; remark: listed apart in the source
[27] = biological target: T5, recombinant human VEGF165; assay: AlphaScreen, hVEGF165/hVEGFR2-Fc competition, +5 uM HSA; remark: listed apart in the source
Experimental: These 2 competition assays are also performed after preincubation of the VHHs with 5 μM human serum albumin.

[28] = biological target: T8, human DLL4, full length, overexpressed …; assay: FMAT, hNotch1-Fc on CHO-hDLL4, +25 uM HSA

T1 sequence (Q9JI71 27-532): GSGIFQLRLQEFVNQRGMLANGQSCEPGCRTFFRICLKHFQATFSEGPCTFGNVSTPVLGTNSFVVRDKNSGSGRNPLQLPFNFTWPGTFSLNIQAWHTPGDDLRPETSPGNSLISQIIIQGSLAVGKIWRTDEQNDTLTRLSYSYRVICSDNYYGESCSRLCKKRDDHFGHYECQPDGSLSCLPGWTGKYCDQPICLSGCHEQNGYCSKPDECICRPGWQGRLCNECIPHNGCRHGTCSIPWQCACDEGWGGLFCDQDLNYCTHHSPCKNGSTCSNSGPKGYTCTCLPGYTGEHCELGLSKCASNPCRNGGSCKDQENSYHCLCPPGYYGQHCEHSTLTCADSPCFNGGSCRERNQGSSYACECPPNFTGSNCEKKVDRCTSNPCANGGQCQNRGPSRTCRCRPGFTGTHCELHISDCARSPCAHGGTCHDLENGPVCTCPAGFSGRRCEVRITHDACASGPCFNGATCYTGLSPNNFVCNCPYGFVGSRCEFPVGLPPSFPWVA

B1: DLLBII08C11 (VHH)
VHH: EVQLVESGGGLVQAGGSLRLSCAASGFTFDDYAIGWFRQAPGKEREGVSCISSHDRTTYYADSVKGRFTISSDNAKNTVYLQMNSLKPEDTAVYYCAADPLVCGYNDPRLADYWGQGTQVTVSS
notes: also called DLLBII8C11
binding result [1]: no binding (tested: 2.5e-7 M) | binding result [2]: no binding (tested: 2.5e-7 M) | IC50 [3]: 700 pM | binding result [4]: no binding (tested: 2.5e-7 M) | % inh [5]: 57% | EC50 [6]: 1100 pM

B2: VEGFBII021 (VHH, not shown: small tags and cut ends)
chain: EVQLVESGGGLVQTGDSLRLSCEVSGRTFSSYSMGWFRQAQGKEREFVVAISKGGYKYDSVSLEGRFTISKDNAKNTVYLQINSLKPEDTAVYYCASSRAYGSSRLRLADTYEYWGQGTQVTVSSGGGGSGGGGSGGGGSGGGGSGGGGSGGGGSGGGGSGGGGSEVQLVESGGGLVQPGGSLRLSCVASGIRFMSMAWYRQAPGKHRELVARISSGGTTAYVDSVKGRFTISRDNSKNTVYLQMNSLKAEDTAVYYCNTFSSRPNPWGAGTQVTVSS
notes: Bivalent (heterodimeric) anti-VEGF VHH; also called VEGFBII23B04-40GS-5B05
% inhibition [7]: 100% | IC50 [7]: 16 pM | IC50 [8]: 9 pM | % inhibition [9]: 97% | IC50 [9]: 254 pM | EC50 [10]: 502 pM | Kd [11]: 70 pM | ka1 [11]: 1.2e+06 M⁻¹ s⁻¹ | ka2 [11]: 0.023 s⁻¹ | kd1 [11]: 0.011 s⁻¹ | kd2 [11]: 0.00019 s⁻¹ | % inhibition [12]: 100% | IC50 [12]: 7 pM | % inhibition, VEGF HUVEC proliferation assay [13]: 98% | IC50, VEGF HUVEC proliferation assay [13]: 400 pM | EC50 [14]: 334 pM | % inhibition [15]: 100% | IC50 [15]: 204 pM | % inhibition, VEGF HUVEC Erk phosphorylation assay [16]: 103% | IC50, VEGF HUVEC Erk phosphorylation assay [16]: 210 pM | % inhibition [17]: 100% | IC50 [17]: 12 pM

B3: VEGFBII037 (VHH)
VHH: DVQLVESGGGLVQPGGSLRLSCAASGRTFSSYSMGWFRQAPGKEREFVVAISKGGYKYDAVSLEGRFTISRDNAKNTVYLQMNSLRPEDTAVYYCASSRAYGSSRLRLADTYEYWGQGTLVTVSS
notes: also called VEGFBII0037
% inhibition [18]: 100% | IC50 [18]: 300 pM | Kd [19]: 270 pM | % inhibition, VEGF HUVEC proliferation assay [20]: 78% | IC50, VEGF HUVEC proliferation assay [20]: 1540 pM

B4: VEGFBII038 (VHH)
VHH: DVQLVESGGGLVQPGGSLRLSCAASGRTFSSYSMGWFRQAPGKEREFVVAISKGGYKYDAVSLEGRFTISRDNAKNTVYLQINSLRPEDTAVYYCASSRAYGSSRLRLADTYEYWGQGTLVTVSS
notes: also called VEGFBII0038
% inhibition [18]: 100% | IC50 [18]: 143 pM | % inh [21]: 50% | IC50 [21]: 200 pM | Kd [19]: 360 pM | IC50 [22]: 100 pM | % inhibition, VEGF HUVEC proliferation assay [20]: 92% | IC50, VEGF HUVEC proliferation assay [20]: 600 pM | % inh [23]: 100% | IC50 [23]: 200 pM

B5: VEGFDLLBII001 (bispecific antibody)
chain: EVQLVESGGGLVQAGGSLRLSCAASGRTFSSYAMAWFRQAPGKEREFVAAIRWSGGTAYYADSVQGRFTISRDNAKNTVYLQMNSLKPEDTAVYYCANRAADTRLGPYEYDYWGQGTQVTVSSGGGGSGGGGSGGGGCGGGGSGGGGSGGGGSGGGGSEVQLVESGGGLVQTGDSLRLSCEVSGRTFSSYSMGWFRQAQGKEREFVVAISKGGYKYDSVSLEGRFTISKDNAKNTVYLQINSLKPEDTAVYYCASSRAYGSSRLRLADTYEYWGQGTQVTVSS
modifications: PEGylated at the Cys at position 15 of the 35 Gly-Ser linker
notes: DLLBII101G08 - 35GS(Cys15) - VEGFBII23B04
IC50 [24]: 128000 pM | % inh [25]: 69% | IC50 [25]: 1580 pM | % inh [26]: 100% | IC50 [26]: 640 pM | % inh [27]: 100% | IC50 [27]: 640 pM | IC50 [28]: 122000 pM
